Laboratory results published in the supplement of paper PMC10724198.
± gives the standard deviation of the averaged measurements.
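Note: PSI is a weighted mean of sequencing reads over stability bins, variants kept only with over 10 reads, mCherry proximal and sfGFP distal, peptide attached via GGGS linker.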

These sequences were tested on Saccharomyces cerevisiae (assay: protein stability index of tFT-peptide fusion (C-terminal peptide) (PSI (0-1 scale)); higher = more stable (slower turnover)). Conditions: genetic background: wild type; temperature: 30 C.
Experimental: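 Multiplexed protein stability (MPS) profiling in S. cerevisiae. Random 12-aa peptides (tFT-X12 library) are fused to the C-terminus of a sfGFP-mCherry tandem fluorescent timer, after mCherry and a GGGS linker. Cells are FACS-sorted into 8 mCherry/sfGFP bins and deep-sequenced. The protein stability index (PSI) is the read-weighted bin average, scaled from 0 (unstable) to 1 (stable). Only peptides with >10 reads are reported; cells were grown at 30 °C in SC-His with glucose.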
PPPPPPSPPLSP gave a protein stability index of 0.677 ± 0.028.
Sequence TSSRHNEVIKGC has a protein stability index of 0.706 ± 0.033.
Sequence SFPHSFLFPLFP has a protein stability index of 0.751 ± 0.09.
In the case of ANQGRRPWRGMC, the protein stability index is reported as 0.585 ± 0.14.
For FSRPPPFPLFSS, the protein stability index was 0.69 ± 0.03.
In the case of TAVPPLFARTWQ, the protein stability index is reported as 0.6786 ± 0.0049.
PFPAFPPVTSPP was tested, and the protein stability index was 0.85 ± 0.054.
VLALLPLFFYFH was tested, and the protein stability index was 0.5041 ± 0.0041.
Work on GNHNGKIILDNR yielded a protein stability index of 0.679 ± 0.023.
In the case of PKSTDVPPVRRE, the protein stability index is reported as 0.686 ± 0.088.
In the case of SPPFPRPCPFTP, the protein stability index is reported as 0.644 ± 0.086.
For LRPQKIPASSEA, the protein stability index was 0.678 ± 0.0077.
In the case of LDARYRSSVGFK, the protein stability index is reported as 0.68876 ± 0.00018.
PPPVSLFSPRSL gave a protein stability index of 0.781 ± 0.099.
SPPHPPPLLLPP was tested, and the protein stability index was 0.655 ± 0.066.
With RRSGILGSSFVF the protein stability index was 0.75 ± 0.047.
In the case of VCRPLYNSMFGR, the protein stability index is reported as 0.691 ± 0.023.
Sequence FYFRFPGFLAGF has a protein stability index of 0.5687 ± 0.0052.
For SSPARPTRTSPA, the protein stability index was 0.652 ± 0.061.
NIMNKIFQKQKE gave a protein stability index of 0.642 ± 0.092.
PSSYFFPPHFLL gave a protein stability index of 0.665 ± 0.1.
For GTCWGGAMGVVG, the protein stability index was 0.728 ± 0.042.
Sequence NSDEYKVYGEKL has a protein stability index of 0.661 ± 0.015.
With ITDCAFIPLTVD the protein stability index was 0.764 ± 0.095.
For SHASTPSSRVIP, the protein stability index was 0.716 ± 0.01.
PPPPPRPSPRPS was tested, and the protein stability index was 0.796 ± 0.013.
RFNGWRDKEAME showed a protein stability index of 0.707 ± 0.036.
RTVTKGTTFKVR showed a protein stability index of 0.671 ± 0.057.
With RPFLPPPPHCPP the protein stability index was 0.75 ± 0.036.
ACTPHLPLPAPQ gave a protein stability index of 0.706 ± 0.016.
RGGGGGEWGEQR was tested, and the protein stability index was 0.702 ± 0.046.
PMNCIGTRGHQV was tested, and the protein stability index was 0.65854 ± 0.00043.
Sequence VHSPLVHILSCS has a protein stability index of 0.582 ± 0.012.
Sequence SASWARRSLPIW has a protein stability index of 0.729 ± 0.045.
With SMARVWLVWRWK the protein stability index was 0.673 ± 0.035.
LGNPVLRFILEK was tested, and the protein stability index was 0.597 ± 0.094.
VVWLWGAGWGCD was tested, and the protein stability index was 0.747 ± 0.022.
LVLVSFWWSGPM gave a protein stability index of 0.526 ± 0.031.
In the case of PPPPPPPLVPPS, the protein stability index is reported as 0.595 ± 0.036.
AGSDLGLIEGIV was tested, and the protein stability index was 0.685 ± 0.024.
Work on PPSHPLSPLSRL yielded a protein stability index of 0.722 ± 0.067.
With VPVIGRSCPFLP the protein stability index was 0.6581 ± 0.0013.
GQTMDLRKCTGP was tested, and the protein stability index was 0.6436 ± 0.0037.
VASKAGVLFGIR was tested, and the protein stability index was 0.673 ± 0.12.
SLPHHRPPHPRT gave a protein stability index of 0.752 ± 0.17.
Work on LPLPVPSLPSAP yielded a protein stability index of 0.728 ± 0.019.
Work on PPPLSPPTPPPP yielded a protein stability index of 0.674 ± 0.049.
In the case of RCLGVCRAESLP, the protein stability index is reported as 0.682 ± 0.034.
QVHPKRPLNQSL showed a protein stability index of 0.735 ± 0.054.
Sequence RLTPFPPRPLPL has a protein stability index of 0.767 ± 0.2.
In the case of YLSACLCGGFCS, the protein stability index is reported as 0.684 ± 0.047.
With NEINKPTRSQTA the protein stability index was 0.644 ± 0.04.
In the case of KKKKRKNNITKK, the protein stability index is reported as 0.74 ± 0.15.
GLGWGGRGMRVV showed a protein stability index of 0.695 ± 0.026.
SPPPSPPTVLPI showed a protein stability index of 0.683 ± 0.022.
In the case of GGRWNRNSGRGG, the protein stability index is reported as 0.693 ± 0.021.
Work on VCGSILSVFRAY yielded a protein stability index of 0.571 ± 0.0016.
With AVVVGGGGWWWA the protein stability index was 0.801 ± 0.12.
RDPTTYGRSKEN gave a protein stability index of 0.655 ± 0.023.
LLFDIYSPTCPS was tested, and the protein stability index was 0.628 ± 0.02.
Sequence VEFVSKSLGVGW has a protein stability index of 0.6756 ± 0.0053.
With EPTGEPKQKKEG the protein stability index was 0.707 ± 0.035.
GGLICRQGVGRG showed a protein stability index of 0.748 ± 0.033.
In the case of RRSRTEVVAVGG, the protein stability index is reported as 0.676 ± 0.017.
SGAGVGWGCSSV was tested, and the protein stability index was 0.635 ± 0.047.
Sequence PPPPRSSPSPLP has a protein stability index of 0.668 ± 0.077.
Sequence RFPPPPPPPPLL has a protein stability index of 0.718 ± 0.078.
Work on CRGWWRPGLGVT yielded a protein stability index of 0.64 ± 0.015.
Work on FQGRLILCIETR yielded a protein stability index of 0.5323 ± 0.00074.
In the case of SNRALHATPCPR, the protein stability index is reported as 0.9 ± 0.038.
With RRSVMLISNETR the protein stability index was 0.698 ± 0.038.
Sequence PPPPPPPPCGTP has a protein stability index of 0.633 ± 0.014.
With AEGPWMEDGDMG the protein stability index was 0.7024 ± 0.0028.
HDQKVPRERRTR gave a protein stability index of 0.699 ± 0.025.
FLLFSSFYFCFP gave a protein stability index of 0.497 ± 0.062.
Sequence PPPSPPSPLSPP has a protein stability index of 0.675 ± 0.073.
For SASRSLFLSRSP, the protein stability index was 0.6703 ± 0.0023.
GRWGGRLSWAPG gave a protein stability index of 0.628 ± 0.03.
EIKKKNPSTTRR gave a protein stability index of 0.663 ± 0.01.
With PGWPISNLGHAL the protein stability index was 0.634 ± 0.077.
For GFEAFGPFIPAF, the protein stability index was 0.681 ± 0.019.
